In patent US20020128175A1:

Molecular target: low density lipoprotein (LDL) from human plasma (human) (UniProt P04114)
Experiment: agarose gel, stained bands excised and counted with 125I-labeled peptide

Binder: Ac-LRKLRKRLLRDWLKAFYDKVAEKLKEAF-NH2 (also: 125I-labelled where stoichiometry was determined) [Ac-hE18A-NH2 (end protected analog of hApoE[141-150]-18A)]
- stoichiometry (molecules of peptide per LDL) (molecules of peptide per LDL): 30
